This is an account of results in patent US20140341881.

The subject of data set [1] is CFP-LQRAI-YFP-6xHis substrate (peptide E8).
The test system of data set [2] is CFP-LSGGR-YFP-6xHis substrate (peptide E2).
Data set [3] has as its system CFP-LSRDN-YFP-6xHis substrate (peptide E7).
Data set [4] has as its system CFP-NNKLR-YFP-6xHis substrate (peptide E9).
Data set [5] relates to CFP-NQRSS-YFP-6xHis substrate (peptide E5).
In data set [6] the test system is CFP-QRLRD-YFP-6xHis substrate (peptide F11).
Data set [7] concerns CFP-RGKTN-YFP-6xHis substrate (peptide D9).
Data set [8] deals with CFP-RQTND-YFP-6xHis substrate (peptide C11).
Data set [9] relates to CFP-VGSLR-YFP-6xHis substrate (peptide G1).
Data set [10] concerns CFP-YQSLN-YFP-6xHis substrate (peptide F10).
Data set [11] concerns T1, CFP-AYGYK-YFP-6xHis substrate (peptide E1).
T1 sequence: GALGGAYGYKGST

In data set [12] the test system is T2, CFP-PDRHM-YFP-6xHis substrate (peptide F3).
T2 sequence: GALGGPDRHMGST

human plasma kallikrein (PK), sequence (chain, as listed by the source): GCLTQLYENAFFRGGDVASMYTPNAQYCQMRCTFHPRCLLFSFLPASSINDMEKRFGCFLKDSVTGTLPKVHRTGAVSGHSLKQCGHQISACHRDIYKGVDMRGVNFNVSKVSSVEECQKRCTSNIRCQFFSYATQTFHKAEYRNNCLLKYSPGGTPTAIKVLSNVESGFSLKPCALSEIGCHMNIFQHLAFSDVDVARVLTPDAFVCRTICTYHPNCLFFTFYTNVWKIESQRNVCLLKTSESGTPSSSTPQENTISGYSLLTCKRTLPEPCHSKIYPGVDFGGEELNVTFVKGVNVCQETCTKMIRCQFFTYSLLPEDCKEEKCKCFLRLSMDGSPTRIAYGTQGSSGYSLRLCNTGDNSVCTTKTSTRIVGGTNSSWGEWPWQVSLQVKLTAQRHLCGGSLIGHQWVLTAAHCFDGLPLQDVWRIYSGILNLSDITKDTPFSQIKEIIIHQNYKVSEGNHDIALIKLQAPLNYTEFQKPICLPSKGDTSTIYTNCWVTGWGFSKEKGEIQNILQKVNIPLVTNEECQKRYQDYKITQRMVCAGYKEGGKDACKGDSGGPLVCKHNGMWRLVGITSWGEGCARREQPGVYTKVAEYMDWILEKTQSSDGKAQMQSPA

On to human kallikrein 2 (hK2), for which the Kcat/Km in data set [1] was 25000 M⁻¹ s⁻¹; in data set [2], 14000 M⁻¹ s⁻¹; in [3] it was 16000 M⁻¹ s⁻¹; in data set [4] it was 12000 M⁻¹ s⁻¹; in data set [5], 14000 M⁻¹ s⁻¹; in [6] it was 32000 M⁻¹ s⁻¹. The figures for the Kcat/Km in data set [7], in [8] and in [9] were 21000 M⁻¹ s⁻¹, 23000 M⁻¹ s⁻¹ and 21000 M⁻¹ s⁻¹, respectively.
As to human kallikrein hK1, the Kcat/Km entry in data set [6] is on record as “L.C”.
Consider human plasma kallikrein (PK), for which the Kcat/Km in data set [1] and in data set [5] was 5000 M⁻¹ s⁻¹ throughout.
Take prostate specific antigen (PSA, hK3): the Kcat/Km entry in [10] is “L.C”.
trypsin: the Kcat/Km stood at 129000 M⁻¹ s⁻¹ in data set [11]; 2.27e+06 M⁻¹ s⁻¹ in [1]; 4.68e+06 M⁻¹ s⁻¹ in [2]; 246000 M⁻¹ s⁻¹ in [3]; 384000 M⁻¹ s⁻¹ in data set [4]; 2.07e+06 M⁻¹ s⁻¹ in [5]. Further, the Kcat/Km in data set [12] worked out at 319000 M⁻¹ s⁻¹; in [6], 1.42e+06 M⁻¹ s⁻¹; in [7], 2.11e+06 M⁻¹ s⁻¹; in [8], 260000 M⁻¹ s⁻¹; in data set [9], 270000 M⁻¹ s⁻¹.
